Source: patent publication US20170190773A1 (IGYXOS, published 2017)

Tests used:
[1] = target: T1, equine chorionic gonadotropin (equine, UniProt P01220 25-120; P08751 21-169); experiment: ELISA saturation binding on adsorbed hormone; Kd estimated with GraphPad Prism 'One site-Specific binding'
T1 construct: also called eCG
Method: (§1) Each hormone evaluated was prepared at the concentration of 10 μg/ml in a 0.1 M sodium carbonate buffer, pH 9.6, and distributed in a proportion of 100 μl per well on an ELISA plate. The adsorption time was 18 hours at +4° C. After five washes, the wells were treated with 100 µl of PBS supplemented with 0.1% Tween and 1% BSA for 45 minutes at 37° C., then each antibody or scFv was distributed in a proportion of 100 μl/well and incubated for one hour at 37° C. On each hormone evaluated, the antibody and the scFv were distributed at various concentrations according to a range of 10 to 250 μg/ml for the antibodies and of 10 to 150 or 200 μg/ml for the scFv.
(§2) After five washes, a secondary antibody coupled to peroxidase (HRP) was distributed in a proportion of 100 µl/well and incubated for one hour at 37° C. Depending on the isotype of the monoclonal antibody studied, the secondary antibody was an anti-IgG1 HRP (Ref. 115-035-205, Jackson ImmunoResearch Laboratories Inc), an anti-IgG2a HRP (Ref. 115-035-206, Jackson Laboratories) or an anti-IgM HRP (Ref. 115-035-075, Jackson Laboratories). For the scFvs, an anti-His Tag HRP (Ref. R93125 Life Technologies, France) was used. […] After the reaction had been stopped with 1 M H₂SO₄ (50 μl/well), the strength of the colored reaction (optical density) was measured using a spectrophotometer for ELISA plates.
(§3) An estimation of the dissociation constant Kd of the scFv, with respect to the various FSH, LH and CG studied, was calculated on GraphPad Prism (GraphPad Software Inc., San Diego, Calif., USA, version 5) using the “One site—Specific binding” function in a saturation binding model (“saturation binding experiment model”, GraphPad PRISM software).

ovine FSH [2] = target: T2, ovine FSH (ovine, UniProt P01218 25-120; P01227 20-129); experiment: as above
Method: as §1, §2, §3

[3] = target: T3, hMG Menopur (human menopausal gonadotropin, Ferring Pharmaceuticals) (human); experiment: as above
T3 construct: numbers for it cannot be laid to one hormone
Method: as §1, §2, §3

porcine LH [4] = target: T4, porcine LH (porcine, UniProt P01219 25-120; P01232 21-141); experiment: as above
Method: as §1, §2, §3

ovine LH [5] = target: T5, ovine LH (ovine, UniProt P01218 25-120; P01231 21-141); experiment: as above
Method: as §1, §2, §3

[6] = target: T6, hCG Endo 5000 (purified human chorionic gonadotropin, Schering-Plough) (human, UniProt P01215 25-116; P0DN86 21-165); experiment: as above
T6 construct: Commercial purified hCG
T6 sequence (P01215 25-116, chain 1 of 2, other chains not shown): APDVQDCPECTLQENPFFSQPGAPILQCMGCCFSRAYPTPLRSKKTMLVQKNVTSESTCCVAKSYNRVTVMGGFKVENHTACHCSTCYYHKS
Method: as §1, §2, §3

[7] = target: T7, hCG Chorulon (human chorionic gonadotropin extracted from urine of pregnant women, MSD) (human, UniProt P01215 25-116; P0DN86 21-165); experiment: as above
T7 construct: Commercial urinary hCG, veterinary preparation
T7 sequence (P01215 25-116, chain 1 of 2, other chains not shown): as above
Method: as §1, §2, §3

bovine LH [8] = target: T8, bovine LH (bovine, UniProt P01217 25-120; P04651 21-141); experiment: as above
Method: as §1, §2, §3

[9] = target: T1, equine chorionic gonadotropin; experiment: ELISA; hormone adsorbed on the plate (10 µg/ml), scFv at 200 µg/ml, anti-His Tag HRP
Method: as §1, §2

porcine LH [10] = target: T4, porcine LH; experiment: as above
Method: as §1, §2

ovine LH [11] = target: T5, ovine LH; experiment: as above
Method: as §1, §2

[12] = target: T6, hCG Endo 5000 (purified human chorionic …); experiment: as above
Method: as §1, §2

[13] = target: T7, hCG Chorulon (human chorionic …); experiment: as above
Method: as §1, §2

bovine LH [14] = target: T8, bovine LH; experiment: as above
Method: as §1, §2

ovine FSH [15] = target: T2, ovine FSH; experiment: cell-based or functional assay
[16] = target: human FSH Gonal-F (recombinant human FSH, Merck Serono) (human, UniProt P01215 25-116; P01225 19-129); experiment: cell-based or functional assay
Sequence of human FSH Gonal-F (recombinant human FSH, Merck Serono) (P01215 25-116, chain 1 of 2): as the sequence (P01215 25-116, chain 1 of 2, other chains not shown) above
Sequence of human FSH Gonal-F (recombinant human FSH, Merck Serono) (P01225 19-129, chain 2 of 2): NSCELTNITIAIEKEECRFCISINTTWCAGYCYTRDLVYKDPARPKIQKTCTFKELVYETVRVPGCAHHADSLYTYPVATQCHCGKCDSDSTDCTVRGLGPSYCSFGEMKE

porcine FSH = porcine FSH (porcine, UniProt P01219 25-120; P01228 21-129); experiment: cell-based or functional assay
[17] = target: human FSH (preparation not named) (human, UniProt P01215 25-116; P01225 19-129); experiment: cell-based or functional assay
Sequence of human FSH (preparation not named) (P01215 25-116, chain 1 of 2): as the sequence (P01215 25-116, chain 1 of 2, other chains not shown) above
Sequence of human FSH (preparation not named) (P01225 19-129, chain 2 of 2): as the sequence (P01225 19-129, chain 2 of 2) above

T1 sequence (P01220 25-120, chain 1 of 2): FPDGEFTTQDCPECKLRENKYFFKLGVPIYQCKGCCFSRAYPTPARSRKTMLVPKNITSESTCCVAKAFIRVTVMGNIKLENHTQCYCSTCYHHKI
T1 sequence (P08751 21-169, chain 2 of 2): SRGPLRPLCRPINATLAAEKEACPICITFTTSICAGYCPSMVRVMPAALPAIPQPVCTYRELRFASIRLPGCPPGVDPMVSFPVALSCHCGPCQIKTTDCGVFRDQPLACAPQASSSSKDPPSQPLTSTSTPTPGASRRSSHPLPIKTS

B1: CF12 scFv (scFv)
scFv: QVQLQQSGGAELVKPGASVKLSCKTSGFTFSSSYISWLKQKPGQSLEWIAWIYAGTGGTSYNQKFTGKAQLTVDTSSSTAYMQFSSLTTEDSAIYYCARHGSYFDYWGQGTTLTVSSGGGGSGGGGSGGGGSDIQMTQTPASLAVSLGQRATISCKASQSVDYDGDSYMNWYQQKPGQPPKLLIYAASNLESGIPARFSGSGSGTDFTLNIHPVEEEDAATYYCQQSNEDPYTFGGGTKLEIKHHHHHH
notes: Made in E. coli periplasm; also called scFv derived from the CF12 antibody
- Kd [1]: 6.12 µM
- Kd (ovine FSH [2]): 3.78 µM
- Kd [3]: 14 µM
- Kd (porcine LH [4]): 4.73 µM
- Kd (ovine LH [5]): 5.81 µM
- Kd [6]: 6.24 µM
- Kd [7]: 5.07 µM
- Kd (bovine LH [8]): 5.03 µM
- optical density [9]: 0.6 optical density units
- optical density (porcine LH [10]): 2.2 optical density units
- optical density (ovine LH [11]): 2 optical density units
- optical density [12]: 0.38 optical density units
- optical density [13]: 0.35 optical density units
- optical density (bovine LH [14]): 2.2 optical density units

B2: CF12 monoclonal antibody (antibody, IgM, V domains shown)
VH: QGQMQQSGAELVKPGASVKLSCKTSGFTFSSSYISWLKQKPGQSLEWIAWIYAGTGGTSYNQKFTGKAQLTVDTSSSTAYMQFSSLTTEDSAIYYCARHGSYFDYWGQGTTLTVSS
VL: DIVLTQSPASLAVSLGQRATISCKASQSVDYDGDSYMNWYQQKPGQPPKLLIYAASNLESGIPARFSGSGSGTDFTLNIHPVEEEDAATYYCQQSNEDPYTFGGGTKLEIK
- increase in the bioactivity of the hormone, LogEC50, GloSensor HEK 293 hFSHR cells (ovine FSH [15]): 1.06 LogEC50
- increase in the bioactivity of the hormone, LogEC50 units, GloSensor HEK 293 hFSHR cells [16]: 0.7 LogEC50 units
- increase in the bioactivity of the hormone, LogEC50, GloSensor HEK 293 hFSHR cells (porcine FSH): 0.717 LogEC50
- cAMP secretion of bovine granulosa cells, hFSH 3-25 ng/ml pre-complexed with 0.1 µg/ml CF12 against hFSH alone [17]: 2.5 fold
